Source: patent US20100129369A1 (Eli Lilly, published 2010)

Tests used:
RON-ECD-Fc [1] = target: T1, RON-ECD-Fc (human, UniProt Q04912 25-957); assay: ELISA, coated ECD-Fc, antibody 2777.778 ng/mL
T1 construct: extracellular domain; Bought reagent; not shown: Fc part of the bought fusion
T1 sequence (looked up): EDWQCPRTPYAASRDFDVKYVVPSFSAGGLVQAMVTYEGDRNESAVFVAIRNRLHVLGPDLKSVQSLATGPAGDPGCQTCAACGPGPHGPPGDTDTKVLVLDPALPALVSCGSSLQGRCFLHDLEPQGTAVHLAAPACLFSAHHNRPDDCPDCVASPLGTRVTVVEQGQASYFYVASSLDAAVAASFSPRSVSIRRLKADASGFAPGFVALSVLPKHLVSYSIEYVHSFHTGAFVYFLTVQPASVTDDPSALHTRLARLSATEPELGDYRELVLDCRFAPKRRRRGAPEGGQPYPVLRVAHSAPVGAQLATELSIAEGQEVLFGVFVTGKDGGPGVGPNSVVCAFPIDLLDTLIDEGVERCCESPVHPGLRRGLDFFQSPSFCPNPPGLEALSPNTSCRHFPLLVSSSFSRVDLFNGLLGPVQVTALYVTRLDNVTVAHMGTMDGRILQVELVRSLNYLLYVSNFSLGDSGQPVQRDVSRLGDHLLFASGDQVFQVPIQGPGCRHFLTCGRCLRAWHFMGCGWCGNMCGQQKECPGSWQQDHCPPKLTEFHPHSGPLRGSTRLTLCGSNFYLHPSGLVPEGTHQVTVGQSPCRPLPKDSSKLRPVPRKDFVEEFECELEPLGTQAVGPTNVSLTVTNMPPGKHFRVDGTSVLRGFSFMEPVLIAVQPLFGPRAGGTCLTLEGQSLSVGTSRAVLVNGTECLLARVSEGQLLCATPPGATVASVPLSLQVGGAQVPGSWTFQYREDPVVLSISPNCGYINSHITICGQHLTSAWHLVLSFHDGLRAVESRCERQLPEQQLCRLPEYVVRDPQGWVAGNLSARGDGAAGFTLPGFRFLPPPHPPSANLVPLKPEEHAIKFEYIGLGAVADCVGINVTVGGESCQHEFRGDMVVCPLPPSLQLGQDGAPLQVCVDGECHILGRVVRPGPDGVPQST
Protocol: (§1) Wells of 96-well EIA/RIA high binding plates (Costar, #2592) are coated with 100 μL of 1 μg/mL human c-Met extracellular domain (ECD)-Fc-Flis fusion (SEQ ID NO:72), RON-ECD-Fc (R&D Systems, #1947-MS), or PlexinA2-ECD-Fc (Abnova, Taipei, Taiwan #H00005362-P01) in coating buffer (BioFX Labs, # COAT-1000-01) overnight at 4° C. […] After the plates are washed, 100 μL/well of substrate solution (BioFx, #TMBW-1000-01) are added and the plates are incubated for 10 min. at room temperature. 100 μL/well of stop solution (BioFx, # LSTP-1000-01) are added to stop the reaction. The colorimetric signals are developed and read at 450 nm using a SpectraMax 190 plate reader (Molecular Devices, Sunnyvale, Calif.). c-Met antibody binding to c-Met, RON and PlexinA2 ECDs is proportional to color signal production.

PlexinA2-ECD-Fc [2] = target: T2, PlexinA2-ECD-Fc (human, UniProt O75051 35-1237); assay: ELISA, coated ECD-Fc, antibody 2777.778 ng/mL
T2 construct: extracellular domain; Bought reagent
T2 sequence (looked up): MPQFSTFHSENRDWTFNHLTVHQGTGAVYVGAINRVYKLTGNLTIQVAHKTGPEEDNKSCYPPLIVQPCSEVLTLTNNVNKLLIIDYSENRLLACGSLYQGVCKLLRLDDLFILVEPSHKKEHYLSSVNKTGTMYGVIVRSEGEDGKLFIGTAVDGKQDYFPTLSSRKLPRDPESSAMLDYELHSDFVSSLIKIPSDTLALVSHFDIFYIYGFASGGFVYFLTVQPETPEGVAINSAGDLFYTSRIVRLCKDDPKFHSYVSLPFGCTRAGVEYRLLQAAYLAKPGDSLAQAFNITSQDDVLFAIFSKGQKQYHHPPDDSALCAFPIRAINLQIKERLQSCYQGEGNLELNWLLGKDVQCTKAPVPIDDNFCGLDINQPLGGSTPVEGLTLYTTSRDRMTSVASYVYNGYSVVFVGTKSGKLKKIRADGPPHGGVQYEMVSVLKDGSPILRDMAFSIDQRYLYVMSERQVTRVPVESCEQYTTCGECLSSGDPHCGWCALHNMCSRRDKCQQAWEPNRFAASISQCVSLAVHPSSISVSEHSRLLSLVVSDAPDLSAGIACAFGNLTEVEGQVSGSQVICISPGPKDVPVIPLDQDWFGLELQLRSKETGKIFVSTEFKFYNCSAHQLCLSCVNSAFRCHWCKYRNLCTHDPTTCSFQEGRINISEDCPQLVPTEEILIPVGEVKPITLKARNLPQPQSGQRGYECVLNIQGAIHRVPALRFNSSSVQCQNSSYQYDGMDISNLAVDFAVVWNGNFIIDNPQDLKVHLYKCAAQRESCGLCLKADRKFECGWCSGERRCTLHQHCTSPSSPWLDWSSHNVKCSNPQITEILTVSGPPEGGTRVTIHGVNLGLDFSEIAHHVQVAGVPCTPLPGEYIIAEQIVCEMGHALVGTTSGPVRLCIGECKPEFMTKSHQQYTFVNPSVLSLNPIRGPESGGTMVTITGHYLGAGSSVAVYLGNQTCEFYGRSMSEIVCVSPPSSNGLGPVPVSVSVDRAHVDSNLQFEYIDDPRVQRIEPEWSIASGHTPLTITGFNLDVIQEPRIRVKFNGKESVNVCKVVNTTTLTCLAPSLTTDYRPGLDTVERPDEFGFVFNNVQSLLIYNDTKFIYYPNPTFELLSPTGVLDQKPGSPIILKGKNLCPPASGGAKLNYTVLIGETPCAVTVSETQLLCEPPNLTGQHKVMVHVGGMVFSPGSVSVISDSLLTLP
Protocol: as §1

Human c-Met-Flis-Fc ECD [3] = target: T3, Human c-Met-Flis-Fc ECD (human); assay: ELISA, coated ECD-Fc, antibody 2777.778 ng/mL
T3 construct: also called human c-Met extracellular domain (ECD)-Fc-Flis fusion; Human cMet-ECD-Fc-Flis
Protocol: as §1

RON-ECD-Fc [4] = target: T1, RON-ECD-Fc; assay: ELISA, coated ECD-Fc, antibody 16666.667 ng/mL
Protocol: as §1

PlexinA2-ECD-Fc [5] = target: T2, PlexinA2-ECD-Fc; assay: ELISA, coated ECD-Fc, antibody 16666.667 ng/mL
Protocol: as §1

Human c-Met-Flis-Fc ECD [6] = target: T3, Human c-Met-Flis-Fc ECD; assay: ELISA, coated ECD-Fc, antibody 16666.667 ng/mL
Protocol: as §1

T3 sequence (chain, as listed by the source limits assumed): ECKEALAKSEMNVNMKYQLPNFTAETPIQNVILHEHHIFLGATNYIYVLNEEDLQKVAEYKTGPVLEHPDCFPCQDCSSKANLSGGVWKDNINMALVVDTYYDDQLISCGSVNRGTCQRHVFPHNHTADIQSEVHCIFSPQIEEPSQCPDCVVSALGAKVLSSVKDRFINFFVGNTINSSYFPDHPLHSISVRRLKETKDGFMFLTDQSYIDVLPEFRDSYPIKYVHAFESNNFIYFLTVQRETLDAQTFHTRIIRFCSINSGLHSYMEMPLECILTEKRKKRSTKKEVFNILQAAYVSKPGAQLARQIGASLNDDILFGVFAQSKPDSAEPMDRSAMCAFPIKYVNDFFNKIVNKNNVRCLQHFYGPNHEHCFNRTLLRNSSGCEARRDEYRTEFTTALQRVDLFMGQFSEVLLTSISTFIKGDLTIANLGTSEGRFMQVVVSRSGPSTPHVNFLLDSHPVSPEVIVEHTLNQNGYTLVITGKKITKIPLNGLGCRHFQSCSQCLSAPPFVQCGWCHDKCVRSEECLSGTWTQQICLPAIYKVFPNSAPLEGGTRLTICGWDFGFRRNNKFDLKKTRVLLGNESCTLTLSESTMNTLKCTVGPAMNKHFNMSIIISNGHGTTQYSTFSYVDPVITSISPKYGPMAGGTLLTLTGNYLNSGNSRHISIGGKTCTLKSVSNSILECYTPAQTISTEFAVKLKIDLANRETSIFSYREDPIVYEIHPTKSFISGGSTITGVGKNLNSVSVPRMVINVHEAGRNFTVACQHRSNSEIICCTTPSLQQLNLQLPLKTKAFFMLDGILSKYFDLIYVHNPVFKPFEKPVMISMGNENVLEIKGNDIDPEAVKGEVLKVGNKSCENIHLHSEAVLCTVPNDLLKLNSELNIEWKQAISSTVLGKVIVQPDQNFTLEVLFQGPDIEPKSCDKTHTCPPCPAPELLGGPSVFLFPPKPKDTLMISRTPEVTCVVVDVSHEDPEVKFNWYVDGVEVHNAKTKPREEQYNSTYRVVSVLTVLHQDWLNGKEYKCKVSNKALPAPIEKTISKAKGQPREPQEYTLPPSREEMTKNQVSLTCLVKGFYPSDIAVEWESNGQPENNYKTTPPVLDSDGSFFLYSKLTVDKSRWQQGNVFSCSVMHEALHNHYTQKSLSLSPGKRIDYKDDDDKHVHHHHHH

B1: C8-6 (antibody, human IgG2, kappa, V domains shown)
VH: QVQLVQSGAEVKKPGASVKVSCKASGYTFTDYYMHWVRQAPGQGLEWMGRVNPNRGGTTYNQKFEGRVTMTTDTSTSTAYMELRSLRSDDTAVYYCARTNWLDYWGQGTTVTVSS
VL: DIQMTQSPSSLSASVGDRVTITCSVSSSVSSIYLHWYQQKPGKAPKLLIYSTSNLASGVPSRFSGSGSGTDFTLTISSLQPEDFATYYCIQYSGYPLTFGGGTKVEIKR
notes: Called IgG4, kappa; also called Mab C8-6
For B1, the “Average A450 nm” value (RON-ECD-Fc [1]) was 0.088 A450 nm, the “Average A450 nm” value (PlexinA2-ECD-Fc [2]) was 0.094 A450 nm and the “Average A450 nm” value (Human c-Met-Flis-Fc ECD [3]) was 4 A450 nm. For the same binder, the “Average A450 nm” value (RON-ECD-Fc [4]) was 0.124 A450 nm, the “Average A450 nm” value (PlexinA2-ECD-Fc [5]) was 0.118 A450 nm and the “Average A450 nm” value (Human c-Met-Flis-Fc ECD [6]) was 4 A450 nm.
